± gives the standard error. Fewer inactive variants are shown than the library holds.
B1: glmS ribozyme (parent)
chain: AUAAAAGCGCCAGAACUACAGAAAUGUAGUUGACGAGGAGGAGGUUUAUCGAAUUUUCGGCGGAUGCCUCCAAA

Legend:
Conditions in all cases: with glucosamine-6-phosphate
[1] = variants of: B1; experiment: self-cleavage kobs at 160 uM GlcN6P; higher = faster cleavage; RNA array
Outline: (§1)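 Tiles bearing barcoded ribozyme variants, transcribed in situ by E. coli RNA polymerase on sequenced MiSeq chips, were imaged over ~14 h at 37 °C using a hybridised Cy3 probe. Glucosamine-6-phosphate was supplied at 40 μM to 10 mM in HEPES/KCl/Mg(OAc)2 buffer. kobs came from one- or two-exponential decay fits to normalised per-tile medians, and weighted Michaelis–Menten fits then provided kcat and KM.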

[2] = variants of: B1; experiment: self-cleavage kobs at 640 uM GlcN6P; higher = faster cleavage; RNA array
Outline: as §1

[3] = variants of: B1; experiment: self-cleavage kobs at 10000 uM GlcN6P; higher = faster cleavage; RNA array
Outline: as §1

[4] = variants of: B1; experiment: self-cleavage kobs at 2500 uM GlcN6P; higher = faster cleavage; RNA array
Outline: as §1

## A48C C58G C71A
[1]
  self-cleavage kobs at 160 uM GlcN6P: < 1e-05 s⁻¹
[2]
  self-cleavage kobs at 640 uM GlcN6P: < 1e-05 s⁻¹

## A39C G60C
[1]
  self-cleavage kobs at 160 uM GlcN6P: < 1e-05 s⁻¹
[3]
  self-cleavage kobs at 10000 uM GlcN6P: < 1e-05 s⁻¹

## G41A G60C
[1]
  self-cleavage kobs at 160 uM GlcN6P: < 1e-05 s⁻¹
[2]
  self-cleavage kobs at 640 uM GlcN6P: < 1e-05 s⁻¹
[3]
  self-cleavage kobs at 10000 uM GlcN6P: < 1e-05 s⁻¹

## U45A A53G C71U
[1]
  self-cleavage kobs at 160 uM GlcN6P: 0.00381 ± 0.0013 s⁻¹
[2]
  self-cleavage kobs at 640 uM GlcN6P: 0.00623 ± 0.0015 s⁻¹
[4]
  self-cleavage kobs at 2500 uM GlcN6P: 0.00735 ± 0.0025 s⁻¹

## G43A U65C
[1]
  self-cleavage kobs at 160 uM GlcN6P: < 1e-05 s⁻¹
[2]
  self-cleavage kobs at 640 uM GlcN6P: < 1e-05 s⁻¹
[4]
  self-cleavage kobs at 2500 uM GlcN6P: < 1e-05 s⁻¹

## G40C A53U C70U
[1]
  self-cleavage kobs at 160 uM GlcN6P: 9.81e-05 ± 3.6e-05 s⁻¹
[2]
  self-cleavage kobs at 640 uM GlcN6P: 9.65e-05 ± 2.1e-05 s⁻¹
[4]
  self-cleavage kobs at 2500 uM GlcN6P: 0.000268 ± 5.4e-05 s⁻¹

## G43A G59A A64U
[1]
  self-cleavage kobs at 160 uM GlcN6P: < 1e-05 s⁻¹
[3]
  self-cleavage kobs at 10000 uM GlcN6P: < 1e-05 s⁻¹

## A42G G62C
[1]
  self-cleavage kobs at 160 uM GlcN6P: < 1e-05 s⁻¹
[2]
  self-cleavage kobs at 640 uM GlcN6P: < 1e-05 s⁻¹
[4]
  self-cleavage kobs at 2500 uM GlcN6P: < 1e-05 s⁻¹
[3]
  self-cleavage kobs at 10000 uM GlcN6P: < 1e-05 s⁻¹

## G40C C50U U57A C58G U65A
[1]
  self-cleavage kobs at 160 uM GlcN6P: < 1e-05 s⁻¹
[4]
  self-cleavage kobs at 2500 uM GlcN6P: < 1e-05 s⁻¹

## G38U G60C
[1]
  self-cleavage kobs at 160 uM GlcN6P: < 1e-05 s⁻¹
[2]
  self-cleavage kobs at 640 uM GlcN6P: < 1e-05 s⁻¹

## A42C G44A U49C
[1]
  self-cleavage kobs at 160 uM GlcN6P: < 1e-05 s⁻¹
[2]
  self-cleavage kobs at 640 uM GlcN6P: < 1e-05 s⁻¹
[4]
  self-cleavage kobs at 2500 uM GlcN6P: < 1e-05 s⁻¹

## C50G G62U G66C C70A
[1]
  self-cleavage kobs at 160 uM GlcN6P: 7.6e-05 ± 1.6e-05 s⁻¹
[2]
  self-cleavage kobs at 640 uM GlcN6P: 0.000118 ± 2.5e-05 s⁻¹

## U46G C58G U69G
[1]
  self-cleavage kobs at 160 uM GlcN6P: 6.07e-05 ± 2.5e-05 s⁻¹

## A48U G59C
[1]
  self-cleavage kobs at 160 uM GlcN6P: < 1e-05 s⁻¹
[2]
  self-cleavage kobs at 640 uM GlcN6P: < 1e-05 s⁻¹
[4]
  self-cleavage kobs at 2500 uM GlcN6P: < 1e-05 s⁻¹
[3]
  self-cleavage kobs at 10000 uM GlcN6P: < 1e-05 s⁻¹

## A48G A52C U55C
[1]
  self-cleavage kobs at 160 uM GlcN6P: < 1e-05 s⁻¹
[2]
  self-cleavage kobs at 640 uM GlcN6P: < 1e-05 s⁻¹

## G38U A42U
[1]
  self-cleavage kobs at 160 uM GlcN6P: < 1e-05 s⁻¹
[2]
  self-cleavage kobs at 640 uM GlcN6P: < 1e-05 s⁻¹
[3]
  self-cleavage kobs at 10000 uM GlcN6P: < 1e-05 s⁻¹

## G38U A42G
[1]
  self-cleavage kobs at 160 uM GlcN6P: < 1e-05 s⁻¹
[2]
  self-cleavage kobs at 640 uM GlcN6P: < 1e-05 s⁻¹

## U49C A53C
[1]
  self-cleavage kobs at 160 uM GlcN6P: < 1e-05 s⁻¹
[2]
  self-cleavage kobs at 640 uM GlcN6P: < 1e-05 s⁻¹
[4]
  self-cleavage kobs at 2500 uM GlcN6P: < 1e-05 s⁻¹

## A39C U57G C71A
[1]
  self-cleavage kobs at 160 uM GlcN6P: < 1e-05 s⁻¹
[2]
  self-cleavage kobs at 640 uM GlcN6P: < 1e-05 s⁻¹
[4]
  self-cleavage kobs at 2500 uM GlcN6P: < 1e-05 s⁻¹

## U45G A53C C71U
[1]
  self-cleavage kobs at 160 uM GlcN6P: 0.000134 ± 5.7e-05 s⁻¹
[2]
  self-cleavage kobs at 640 uM GlcN6P: 0.000323 ± 7e-05 s⁻¹
[4]
  self-cleavage kobs at 2500 uM GlcN6P: 0.000938 ± 0.00023 s⁻¹

## G40U U45A U56G
[1]
  self-cleavage kobs at 160 uM GlcN6P: 6.56e-05 ± 1.6e-05 s⁻¹
[4]
  self-cleavage kobs at 2500 uM GlcN6P: 0.000611 ± 0.00014 s⁻¹

## G51A U57C
[1]
  self-cleavage kobs at 160 uM GlcN6P: < 1e-05 s⁻¹
[2]
  self-cleavage kobs at 640 uM GlcN6P: < 1e-05 s⁻¹
[4]
  self-cleavage kobs at 2500 uM GlcN6P: < 1e-05 s⁻¹
[3]
  self-cleavage kobs at 10000 uM GlcN6P: < 1e-05 s⁻¹

## U46G U49G G63A A64C
[1]
  self-cleavage kobs at 160 uM GlcN6P: < 1e-05 s⁻¹
[2]
  self-cleavage kobs at 640 uM GlcN6P: < 1e-05 s⁻¹
[4]
  self-cleavage kobs at 2500 uM GlcN6P: < 1e-05 s⁻¹

## G40A U55A
[1]
  self-cleavage kobs at 160 uM GlcN6P: 0.000151 ± 5.3e-05 s⁻¹
[2]
  self-cleavage kobs at 640 uM GlcN6P: 0.00156 ± 0.0003 s⁻¹
[4]
  self-cleavage kobs at 2500 uM GlcN6P: 0.000842 ± 0.00022 s⁻¹

## A42C A52G U55A U57G C68U C70U
[1]
  self-cleavage kobs at 160 uM GlcN6P: < 1e-05 s⁻¹
[2]
  self-cleavage kobs at 640 uM GlcN6P: < 1e-05 s⁻¹
[4]
  self-cleavage kobs at 2500 uM GlcN6P: < 1e-05 s⁻¹

## G43A U56A U57A C61U
[1]
  self-cleavage kobs at 160 uM GlcN6P: < 1e-05 s⁻¹

## G41C A52C G60A G63A G66A C68U
[1]
  self-cleavage kobs at 160 uM GlcN6P: < 1e-05 s⁻¹
[2]
  self-cleavage kobs at 640 uM GlcN6P: < 1e-05 s⁻¹

## A39G G62A
[1]
  self-cleavage kobs at 160 uM GlcN6P: < 1e-05 s⁻¹
[4]
  self-cleavage kobs at 2500 uM GlcN6P: < 1e-05 s⁻¹
[3]
  self-cleavage kobs at 10000 uM GlcN6P: < 1e-05 s⁻¹

## G43A U45A C61G
[1]
  self-cleavage kobs at 160 uM GlcN6P: < 1e-05 s⁻¹
[2]
  self-cleavage kobs at 640 uM GlcN6P: < 1e-05 s⁻¹

## U49A U54A C70G
[1]
  self-cleavage kobs at 160 uM GlcN6P: 4.17e-05 ± 1.8e-05 s⁻¹

## A42C C61U
[1]
  self-cleavage kobs at 160 uM GlcN6P: < 1e-05 s⁻¹
[2]
  self-cleavage kobs at 640 uM GlcN6P: < 1e-05 s⁻¹
[4]
  self-cleavage kobs at 2500 uM GlcN6P: < 1e-05 s⁻¹

## U46G U49A
[1]
  self-cleavage kobs at 160 uM GlcN6P: < 1e-05 s⁻¹
[2]
  self-cleavage kobs at 640 uM GlcN6P: < 1e-05 s⁻¹
[4]
  self-cleavage kobs at 2500 uM GlcN6P: < 1e-05 s⁻¹
[3]
  self-cleavage kobs at 10000 uM GlcN6P: < 1e-05 s⁻¹

## G38U G43A C58G U65C
[1]
  self-cleavage kobs at 160 uM GlcN6P: < 1e-05 s⁻¹

## G40A A42C A48G
[1]
  self-cleavage kobs at 160 uM GlcN6P: < 1e-05 s⁻¹
[2]
  self-cleavage kobs at 640 uM GlcN6P: < 1e-05 s⁻¹
[4]
  self-cleavage kobs at 2500 uM GlcN6P: < 1e-05 s⁻¹
[3]
  self-cleavage kobs at 10000 uM GlcN6P: < 1e-05 s⁻¹

## G44A G51U
[1]
  self-cleavage kobs at 160 uM GlcN6P: < 1e-05 s⁻¹
[3]
  self-cleavage kobs at 10000 uM GlcN6P: < 1e-05 s⁻¹

## A39U A42G G60U
[1]
  self-cleavage kobs at 160 uM GlcN6P: < 1e-05 s⁻¹
[2]
  self-cleavage kobs at 640 uM GlcN6P: < 1e-05 s⁻¹

## A39C G51C U55A
[1]
  self-cleavage kobs at 160 uM GlcN6P: < 1e-05 s⁻¹
[4]
  self-cleavage kobs at 2500 uM GlcN6P: < 1e-05 s⁻¹

## G41U G44C U54C
[1]
  self-cleavage kobs at 160 uM GlcN6P: < 1e-05 s⁻¹
[2]
  self-cleavage kobs at 640 uM GlcN6P: < 1e-05 s⁻¹
[4]
  self-cleavage kobs at 2500 uM GlcN6P: < 1e-05 s⁻¹

## A48C C50A A52G
[1]
  self-cleavage kobs at 160 uM GlcN6P: < 1e-05 s⁻¹
[4]
  self-cleavage kobs at 2500 uM GlcN6P: < 1e-05 s⁻¹

## C50G G59U
[1]
  self-cleavage kobs at 160 uM GlcN6P: 7.49e-05 ± 1.3e-05 s⁻¹
[2]
  self-cleavage kobs at 640 uM GlcN6P: 0.000241 ± 8.6e-05 s⁻¹
[4]
  self-cleavage kobs at 2500 uM GlcN6P: 0.000355 ± 0.0001 s⁻¹

## A39G C50G
[1]
  self-cleavage kobs at 160 uM GlcN6P: 0.000247 ± 0.00011 s⁻¹

## U49G G60U
[1]
  self-cleavage kobs at 160 uM GlcN6P: < 1e-05 s⁻¹
[2]
  self-cleavage kobs at 640 uM GlcN6P: < 1e-05 s⁻¹
[4]
  self-cleavage kobs at 2500 uM GlcN6P: < 1e-05 s⁻¹

## G43C C67U
[1]
  self-cleavage kobs at 160 uM GlcN6P: < 1e-05 s⁻¹
[4]
  self-cleavage kobs at 2500 uM GlcN6P: < 1e-05 s⁻¹

## A39G C58U G63U
[1]
  self-cleavage kobs at 160 uM GlcN6P: < 1e-05 s⁻¹
[2]
  self-cleavage kobs at 640 uM GlcN6P: < 1e-05 s⁻¹

## C50U U56C C68U C70U
[1]
  self-cleavage kobs at 160 uM GlcN6P: < 1e-05 s⁻¹

## G43A G44A
[1]
  self-cleavage kobs at 160 uM GlcN6P: < 1e-05 s⁻¹
[2]
  self-cleavage kobs at 640 uM GlcN6P: < 1e-05 s⁻¹
[4]
  self-cleavage kobs at 2500 uM GlcN6P: < 1e-05 s⁻¹
[3]
  self-cleavage kobs at 10000 uM GlcN6P: < 1e-05 s⁻¹

## A39C U49A C61U C68G
[1]
  self-cleavage kobs at 160 uM GlcN6P: < 1e-05 s⁻¹
[4]
  self-cleavage kobs at 2500 uM GlcN6P: < 1e-05 s⁻¹

## C50G A53G C61U
[1]
  self-cleavage kobs at 160 uM GlcN6P: 0.000208 ± 7.8e-05 s⁻¹
[2]
  self-cleavage kobs at 640 uM GlcN6P: 0.000248 ± 8.1e-05 s⁻¹
[4]
  self-cleavage kobs at 2500 uM GlcN6P: 0.000398 ± 9.7e-05 s⁻¹
[3]
  self-cleavage kobs at 10000 uM GlcN6P: 9.79e-05 ± 2.5e-05 s⁻¹

## A48C U55A G66C
[1]
  self-cleavage kobs at 160 uM GlcN6P: < 1e-05 s⁻¹

## C50U U56C C67U
[1]
  self-cleavage kobs at 160 uM GlcN6P: < 1e-05 s⁻¹

## G44A U49A
[1]
  self-cleavage kobs at 160 uM GlcN6P: < 1e-05 s⁻¹
[2]
  self-cleavage kobs at 640 uM GlcN6P: < 1e-05 s⁻¹
[4]
  self-cleavage kobs at 2500 uM GlcN6P: < 1e-05 s⁻¹
[3]
  self-cleavage kobs at 10000 uM GlcN6P: < 1e-05 s⁻¹
